The target of this assay is human MDL-1 (human) (UniProt Q9NY25). Nature of the assay: cell-based or functional assay.
human MDL-1 (human), sequence (Q9NY25 whole entry): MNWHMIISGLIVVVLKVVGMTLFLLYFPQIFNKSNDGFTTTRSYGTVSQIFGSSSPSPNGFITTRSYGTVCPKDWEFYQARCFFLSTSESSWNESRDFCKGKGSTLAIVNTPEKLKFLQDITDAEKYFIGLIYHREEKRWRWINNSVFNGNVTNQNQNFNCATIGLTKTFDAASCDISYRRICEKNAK

With “rat isotype control mAb (rIgG1) (antibody)”, the secreted beta-hexosaminidase, OD (405-570), DT808 mouse mast cells, cross-link is 0.065 OD (405-570) and the secreted beta-hexosaminidase, OD (405-570), DT808 mouse mast cells, no cross-link was 0.1 OD (405-570).

For the origin of these results see US8153134.
